Results as given in patent publication US20230052369A1 (Zymeworks, published 2023).

What was measured:
[1] = molecular target: T1, full-length human FRα, on 293E cells (human, UniProt P15328 25-234); assay: flow cytometry, 293E cells expressing FRα
T1 construct: also called folate receptor alpha; FOLR1
Description: Antibodies were diluted in 50 μl FB (PBS 2% FCS) 1:3 from stock in wells of a 96 V-well plate, and cells added on top. The cells were then left on ice for 30 minutes for the antibodies to bind. The cells were then washed twice in FB, and incubated in 50 μl FB containing 2 μg/ml goat anti-human Alexa647 antibody (Jackson Immunoresearch). The cells were then left on ice for a further 20 minutes, washed twice in FB, resuspended in 100 μl FB and analyzed on a BD Fortessa™ X20. The subsequent data files were analyzed using FlowJo™ and Prism 7 (GraphPad).

[2] = molecular target: T2, purified human monomeric 4-1BB (human, UniProt Q07011 24-186); assay: SPR, Ab captured, monomeric 4-1BB injected
T2 construct: the assay used the 4-1BB part released by Factor Xa with the Fc removed; also called h4-1BB; human 4-1BB
T2 sequence (Q07011 other isoform, or with tags, fused parts or gaps limits assumed): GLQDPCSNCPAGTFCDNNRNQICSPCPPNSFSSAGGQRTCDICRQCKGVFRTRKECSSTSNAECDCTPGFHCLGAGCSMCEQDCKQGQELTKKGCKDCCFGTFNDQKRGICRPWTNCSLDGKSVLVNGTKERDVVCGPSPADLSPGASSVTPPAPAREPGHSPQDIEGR
Description: The anti-human Fc surface was prepared on a CMS Series S sensorchip by standard amine coupling methods as described by the manufacturer (GE Healthcare). Briefly, immediately after EDC/NHS activation, a 25 μg/mL solution of anti-human Fc in 10 mM NaOAc pH 4.5 was injected at a flow rate of 10 μL/min for 420 s until approximately 2000 resonance units (RUs) were immobilized on all four flow cells. The remaining active groups were quenched by a 420 s injection of 1M ethanolamine at 10 μL/min.
Antibodies for analysis were captured onto the anti-Fc surface by injecting 5 μg/mL solutions at a flow rate of 10 μL/min for 60 s. Using single-cycle kinetics, five concentrations of a two-fold dilution series of 4-1BB starting at 40 nM (for both supernatant and purified antibody runs) with a blank buffer control were sequentially injected at 40 μL/min for 180 s with a 600 s dissociation phase, resulting in a set of sensorgrams with a buffer blank reference. Experiments were performed at a constant temperature of 25° C. The anti-human Fc surfaces were regenerated to prepare for the next injection cycle by one pulse of 10 mM Glycine/HCl pH 1.5 for 120 s at 40 μL/min. Blank-subtracted sensorgrams were analyzed using Biacore™ T200 Evaluation Software v3.0. The blank-subtracted sensorgrams were then fit to the 1:1 Langmuir binding model.
Variants purified by SEC were assessed for binding to human 4-1BB.

T1 sequence (P15328 25-234 limits assumed): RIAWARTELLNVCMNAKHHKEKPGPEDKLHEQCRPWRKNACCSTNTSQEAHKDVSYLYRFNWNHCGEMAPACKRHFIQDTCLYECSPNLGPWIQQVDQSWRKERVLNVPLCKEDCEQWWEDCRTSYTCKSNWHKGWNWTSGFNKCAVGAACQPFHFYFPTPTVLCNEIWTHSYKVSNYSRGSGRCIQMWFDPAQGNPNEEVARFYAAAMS

binding result [1] | Kd [2] [nM] | Binder
binds | 364 | v23660 (bispecific antibody, human IgG1, kappa, L234A L235A, also called 6B3 x 8K22 (VLVH) 2x1) heavy 1: QVQLKESGPGLVAPSQSLSITCTVSGFSLTSYAISWVRQPPGKGLEWLGVIWPGGGTNYNSALKSRLSISKDNSKSQVFLKMNSLQTDDTARYYCARGTGTWYFDVWGAGTTVTVSSASTKGPSVFPLAPSSKSTSGGTAALGCLVKDYFPEPVTVSWNSGALTSGVHTFPAVLQSSGLYSLSSVVTVPSSSLGTQTYICNVNHKPSNTKVDKKVEPKSCDKTHTCPPCPAPEAAGGPSVFLFPPKPKDTLMISRTPEVTCVVVSVSHEDPEVKFNWYVDGVEVHNAKTKPREEQYNSTYRVVSVLTVLHQDWLNGKEYKCKVSNKALPAPIEKTISKAKGQPREPQVYVYPPSRDELTKNQVSLTCLVKGFYPSDIAVEWESNGQPENNYKTTPPVLDSDGSFALVSKLTVDKSRWQQGNVFSCSVMHEALHNHYTQKSLSLSPGGGGGDIVMTQTPASVEAAVGGTVTIKCQASQSIYSSLAWYQQKPGQSPKLLIYDASHLASGVPSRFSGSRYGTEFTLTISGVQCDDAATYYCQGGWYSSAATYVPNTFGGGTEVVVKGGGGSGGGGSGGGGSQEQLVESGGGLVQPEGSLTLTCKASGFTISNNYYMCWVRQAPGKGLEWIACIYGGISGRTYYASWAKGRFTISKTSSTTVTLQMTSLTAADTATYFCVRGYVGTSNLWGPGTLVTVSS heavy 2: QVQLKESGPGLVAPSQSLSITCTVSGFSLTSYAISWVRQPPGKGLEWLGVIWPGGGTNYNSALKSRLSISKDNSKSQVFLKMNSLQTDDTARYYCARGTGTWYFDVWGAGTTVTVSSASTKGPSVFPLAPSSKSTSGGTAALGCLVKDYFPEPVTVSWNSGALTSGVHTFPAVLQSSGLYSLSSVVTVPSSSLGTQTYICNVNHKPSNTKVDKKVEPKSCDKTHTCPPCPAPEAAGGPSVFLFPPKPKDTLMISRTPEVTCVVVSVSHEDPEVKFNWYVDGVEVHNAKTKPREEQYNSTYRVVSVLTVLHQDWLNGKEYKCKVSNKALPAPIEKTISKAKGQPREPQVYVLPPSRDELTKNQVSLLCLVKGFYPSDIAVEWESNGQPENNYLTWPPVLDSDGSFFLYSKLTVDKSRWQQGNVFSCSVMHEALHNHYTQKSLSLSPG light: DIQMTQTTSSLSASLGDRVTISCSASQGISNYLNWYQQKPDGTVKLLIYYTSSLHSGVPSRFSGSGSGTDYSLTISNLEPEDIATYYCQQYSDLPWTFGGGTKLEIKRTVAAPSVFIFPPSDEQLKSGTASVVCLLNNFYPREAKVQWKVDNALQSGNSQESVTEQDSKDSTYSLSSTLTLSKADYEKHKVYACEVTHQGLSSPVTKSFNRGEC
binds | 499 | v23658 (bispecific antibody, human IgG1, kappa, L234A L235A, also called 4E6 x 8K22 (VLVH) 2x1) heavy 1: QVQLKESGPGLVAPSQSLSITCTVSGFSLTSYAINWVRQPPGKGLEWLGVLWPGGGTNYNSALKSRLSISKDNSKSQVFLKMNSLQTDDTARYYCARGSGTWYFDVWGAGTTVTVSSASTKGPSVFPLAPSSKSTSGGTAALGCLVKDYFPEPVTVSWNSGALTSGVHTFPAVLQSSGLYSLSSVVTVPSSSLGTQTYICNVNHKPSNTKVDKKVEPKSCDKTHTCPPCPAPEAAGGPSVFLFPPKPKDTLMISRTPEVTCVVVSVSHEDPEVKFNWYVDGVEVHNAKTKPREEQYNSTYRVVSVLTVLHQDWLNGKEYKCKVSNKALPAPIEKTISKAKGQPREPQVYVYPPSRDELTKNQVSLTCLVKGFYPSDIAVEWESNGQPENNYKTTPPVLDSDGSFALVSKLTVDKSRWQQGNVFSCSVMHEALHNHYTQKSLSLSPGGGGGDIVMTQTPASVEAAVGGTVTIKCQASQSIYSSLAWYQQKPGQSPKLLIYDASHLASGVPSRFSGSRYGTEFTLTISGVQCDDAATYYCQGGWYSSAATYVPNTFGGGTEVVVKGGGGSGGGGSGGGGSQEQLVESGGGLVQPEGSLTLTCKASGFTISNNYYMCWVRQAPGKGLEWIACIYGGISGRTYYASWAKGRFTISKTSSTTVTLQMTSLTAADTATYFCVRGYVGTSNLWGPGTLVTVSS heavy 2: QVQLKESGPGLVAPSQSLSITCTVSGFSLTSYAINWVRQPPGKGLEWLGVLWPGGGTNYNSALKSRLSISKDNSKSQVFLKMNSLQTDDTARYYCARGSGTWYFDVWGAGTTVTVSSASTKGPSVFPLAPSSKSTSGGTAALGCLVKDYFPEPVTVSWNSGALTSGVHTFPAVLQSSGLYSLSSVVTVPSSSLGTQTYICNVNHKPSNTKVDKKVEPKSCDKTHTCPPCPAPEAAGGPSVFLFPPKPKDTLMISRTPEVTCVVVSVSHEDPEVKFNWYVDGVEVHNAKTKPREEQYNSTYRVVSVLTVLHQDWLNGKEYKCKVSNKALPAPIEKTISKAKGQPREPQVYVLPPSRDELTKNQVSLLCLVKGFYPSDIAVEWESNGQPENNYLTWPPVLDSDGSFFLYSKLTVDKSRWQQGNVFSCSVMHEALHNHYTQKSLSLSPG light: DIQMTQTTSSLSASLGDRVTFSCSASQGISNYLNWYQQKPDGTVKLLIYYTSSLHLGVPSRFSGSGSGTDYSLTISNLEPEDIATYYCQQYSKLPWTFGGGTKLEIKRTVAAPSVFIFPPSDEQLKSGTASVVCLLNNFYPREAKVQWKVDNALQSGNSQESVTEQDSKDSTYSLSSTLTLSKADYEKHKVYACEVTHQGLSSPVTKSFNRGEC
binds | 480 | v23656 (bispecific antibody, human IgG1, kappa, L234A L235A, Two 4-1BB Fabs, one FRα scFv at the C-terminus of one heavy chain; also called 1C8 x 8K22 (VLVH) 2x1) heavy 1: QVQLKESGPGLVAPSQSLSITCTVSGFSLTTYAISWVRQPPGKGLEWLGIIWPGGGTNYNSALKSRLSISKDNSRSQVFLKMNSLQTDDTARYYCARGAGTWYFDVWGAGTTVTVSSASTKGPSVFPLAPSSKSTSGGTAALGCLVKDYFPEPVTVSWNSGALTSGVHTFPAVLQSSGLYSLSSVVTVPSSSLGTQTYICNVNHKPSNTKVDKKVEPKSCDKTHTCPPCPAPEAAGGPSVFLFPPKPKDTLMISRTPEVTCVVVSVSHEDPEVKFNWYVDGVEVHNAKTKPREEQYNSTYRVVSVLTVLHQDWLNGKEYKCKVSNKALPAPIEKTISKAKGQPREPQVYVYPPSRDELTKNQVSLTCLVKGFYPSDIAVEWESNGQPENNYKTTPPVLDSDGSFALVSKLTVDKSRWQQGNVFSCSVMHEALHNHYTQKSLSLSPGGGGGDIVMTQTPASVEAAVGGTVTIKCQASQSIYSSLAWYQQKPGQSPKLLIYDASHLASGVPSRFSGSRYGTEFTLTISGVQCDDAATYYCQGGWYSSAATYVPNTFGGGTEVVVKGGGGSGGGGSGGGGSQEQLVESGGGLVQPEGSLTLTCKASGFTISNNYYMCWVRQAPGKGLEWIACIYGGISGRTYYASWAKGRFTISKTSSTTVTLQMTSLTAADTATYFCVRGYVGTSNLWGPGTLVTVSS heavy 2: QVQLKESGPGLVAPSQSLSITCTVSGFSLTTYAISWVRQPPGKGLEWLGIIWPGGGTNYNSALKSRLSISKDNSRSQVFLKMNSLQTDDTARYYCARGAGTWYFDVWGAGTTVTVSSASTKGPSVFPLAPSSKSTSGGTAALGCLVKDYFPEPVTVSWNSGALTSGVHTFPAVLQSSGLYSLSSVVTVPSSSLGTQTYICNVNHKPSNTKVDKKVEPKSCDKTHTCPPCPAPEAAGGPSVFLFPPKPKDTLMISRTPEVTCVVVSVSHEDPEVKFNWYVDGVEVHNAKTKPREEQYNSTYRVVSVLTVLHQDWLNGKEYKCKVSNKALPAPIEKTISKAKGQPREPQVYVLPPSRDELTKNQVSLLCLVKGFYPSDIAVEWESNGQPENNYLTWPPVLDSDGSFFLYSKLTVDKSRWQQGNVFSCSVMHEALHNHYTQKSLSLSPG light: DIQMTQSTSSLSASVGDRVTISCSASQGISNYLNWYQQKPDGTVKLLIYYTSSLHSGVPSRFSGSGSGTDYSLTISNLEPEDIATYYCQQYSKFPWTFGGGTKLEIKRTVAAPSVFIFPPSDEQLKSGTASVVCLLNNFYPREAKVQWKVDNALQSGNSQESVTEQDSKDSTYSLSSTLTLSKADYEKHKVYACEVTHQGLSSPVTKSFNRGEC
binds | 175 | v23657 (bispecific antibody, human IgG1, kappa, L234A L235A, also called 2E8 x 8K22 (VLVH) 2x1) heavy 1: QVQLKQSGPGLVQPSQSLSITCTVSGFSLTSYGVHWVRQSPGKGLEWLGVIWSGGSTDYNAAFISRLSISKDNSKSQVFFKMNSLQADDTAIYYCARNPLTATVMDYWGQGTSVTVSSASTKGPSVFPLAPSSKSTSGGTAALGCLVKDYFPEPVTVSWNSGALTSGVHTFPAVLQSSGLYSLSSVVTVPSSSLGTQTYICNVNHKPSNTKVDKKVEPKSCDKTHTCPPCPAPEAAGGPSVFLFPPKPKDTLMISRTPEVTCVVVSVSHEDPEVKFNWYVDGVEVHNAKTKPREEQYNSTYRVVSVLTVLHQDWLNGKEYKCKVSNKALPAPIEKTISKAKGQPREPQVYVYPPSRDELTKNQVSLTCLVKGFYPSDIAVEWESNGQPENNYKTTPPVLDSDGSFALVSKLTVDKSRWQQGNVFSCSVMHEALHNHYTQKSLSLSPGGGGGDIVMTQTPASVEAAVGGTVTIKCQASQSIYSSLAWYQQKPGQSPKLLIYDASHLASGVPSRFSGSRYGTEFTLTISGVQCDDAATYYCQGGWYSSAATYVPNTFGGGTEVVVKGGGGSGGGGSGGGGSQEQLVESGGGLVQPEGSLTLTCKASGFTISNNYYMCWVRQAPGKGLEWIACIYGGISGRTYYASWAKGRFTISKTSSTTVTLQMTSLTAADTATYFCVRGYVGTSNLWGPGTLVTVSS heavy 2: QVQLKQSGPGLVQPSQSLSITCTVSGFSLTSYGVHWVRQSPGKGLEWLGVIWSGGSTDYNAAFISRLSISKDNSKSQVFFKMNSLQADDTAIYYCARNPLTATVMDYWGQGTSVTVSSASTKGPSVFPLAPSSKSTSGGTAALGCLVKDYFPEPVTVSWNSGALTSGVHTFPAVLQSSGLYSLSSVVTVPSSSLGTQTYICNVNHKPSNTKVDKKVEPKSCDKTHTCPPCPAPEAAGGPSVFLFPPKPKDTLMISRTPEVTCVVVSVSHEDPEVKFNWYVDGVEVHNAKTKPREEQYNSTYRVVSVLTVLHQDWLNGKEYKCKVSNKALPAPIEKTISKAKGQPREPQVYVLPPSRDELTKNQVSLLCLVKGFYPSDIAVEWESNGQPENNYLTWPPVLDSDGSFFLYSKLTVDKSRWQQGNVFSCSVMHEALHNHYTQKSLSLSPG light: DIVMTQSQKFMSTSVGDRVSVTCKASQNVGTNVAWYQQKPGQSRTVLIYSASYRHSGVPDRFTGSGSGTDFTLTISNVQSEDLAEYFCQQYNSYPLTFGTGTKLELKRTVAAPSVFIFPPSDEQLKSGTASVVCLLNNFYPREAKVQWKVDNALQSGNSQESVTEQDSKDSTYSLSSTLTLSKADYEKHKVYACEVTHQGLSSPVTKSFNRGEC
